Source: publication PMC9333347

Target: thermostable exoshell tES(+)F116H
Test: AUC

**Q.** For “horseradish peroxidase (from UniProt P00433 31-338) (enzyme)”, which stoichiometry N (HRP molecules per tES shell) is on record?
**A.** Its stoichiometry N (HRP molecules per tES shell) is 2.
